Measurements taken from patent publication US20230364014A1, “SELF-ASSEMBLED GELS FOR CONTROLLED DELIVERY OF BIOLOGICS AND METHODS OF MAKING THEREOF” (Alivio Therapeutics, Inc., priority 2018, published 2023).

Tests used:
[1] = Time-dependent loading of antibody into ascorbyl palmitate microfibers (HPLC); format: physicochemical
Method: The efficiency of antibody (i.e., IFX or ADA) loading into ascorbyl palmitate microfibers was found be time dependent. […] (and following 3 washes with PBS by centrifugation at 5000 rpm for 10 mins at 4° C.). However, by extending the loading/incubation time to 20 hours (2 hours at 22° C., 18 hours at 4° C.), the loading increased to 14% (wt/wt %).

[2] = Encapsulation efficiency in self-assembled AP microfibers versus non-assembled AP powder suspension (Coomassie Assay); format: physicochemical; settings: 10 mg/mL AP mixed with equal volume of 2 mg/mL mAb in PBS, 22° C. for 2 hours, FIG. 5
Method: Ascorbyl palmitate (AP) microfiber suspensions were prepared using the self-assembly process described in Example 1 or, alternatively, using a non-assembled AP particulate used as-is from the manufacturer (USP grade ascorbyl palmitate, Sigma-Aldrich). […] After loading/incubation at 22° C. for 2 hours, the suspensions were centrifuged at 20,000×g for 10 minutes at 4° C. The supernatant was then removed and tested for soluble protein via the Coomassie Assay to determine the encapsulation efficiency.

[3] = pKa / isoelectric point and pH-dependent loading into AP microfiber suspensions; format: physicochemical; settings: FIG. 4
Excerpt: Agent loading level can also be pH and/or charge-dependent and loading of the agent(s) may be controlled and/or optimized based using the pKa and isoelectric (pI) point of the agent. […] Accordingly, agent loading and encapsulation efficiency may be optimized/maximized by loading gel suspensions at a pH above the pKa of the gelator(s) and a pH which is below the isoelectric (pI) point of the agent(s) which are being loaded onto the gel.

TNF-α = molecular target: T1, TNF-α (Homo sapiens, UniProt P01375); test: TNF-α activity assay with fibroblast L929 cells (L929 viability assay); format: cell-based; settings: 1 ng/mL TNF-α in 2% serum, compared to IFX and ADA controls, FIG. 2
T1 construct: host or cells: added to murine fibroblast L929 cells
T1 sequence (P01375 77-233 limits assumed): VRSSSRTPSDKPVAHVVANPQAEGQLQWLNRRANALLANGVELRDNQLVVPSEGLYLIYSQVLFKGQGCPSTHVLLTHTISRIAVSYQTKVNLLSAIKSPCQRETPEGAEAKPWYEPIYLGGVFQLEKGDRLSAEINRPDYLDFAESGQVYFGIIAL
Method: Activity was measured using the TNF-α activity assay with fibroblast L929 cells (Gibco cytotoxicity assay for recombinant proteins).

[4] = cited from earlier work

For infliximab [IFX], the loading ([1]; after 10 minutes of loading/incubation at 22° C., following 3 washes with PBS) was 7 % (wt/wt %), the theoretical maximum loading ([1]; calculated from amounts of IFX and AP combined during loading) was “approximately 16.7 % (wt/wt %)” and the loading ([1]; loading/incubation time 20 hours (2 hours at 22° C., 18 hours at 4° C.)) was 14 % (wt/wt %).

For adalimumab, the “encapsulation of antibody, self-assembled AP microfiber suspension relative to non-self-assembled AP powder suspension” value [2] was “greater encapsulation”, the “influence of pH on loading and encapsulation efficiency” value [3] was “highest loading and encapsulation efficiencies are observed at a pH above the pKa of AP but below the pI” and the “activity of mAb released from gels against TNF-α” value (TNF-α) was “active against TNF-α”.

For `CCCCCCCCCCCCCCCC(=O)OC[C@H](O)[C@H]1OC(=O)C(O)=C1O` [AP, ascorbyl palmitate], the pKa [4] is given as 4.4.
